From publication PMC5095173, “Disulfide-activated protein kinase G Iα regulates cardiac diastolic relaxation and fine-tunes the Frank–Starling response” (Nature Communications, 2016)
Blank lines part the entries; values can stand above or below the substance they belong to.

Columns and labels:
C42S PKGIα (human) = experiment: ITC; PLN (1–23) (700 μM) titrated into the cell containing WT disulfide PKGIα or the C42S mutant (70 μM); 25 °C; 50 mM sodium phosphate buffer pH 7.4, 100 mM NaCl; no cyclic nucleotide
[1] = molecular target: PKGIα (WT mouse heart) (mouse (endogenous in mouse heart)) (UniProt P0C605); experiment: cross-linking; intermolecular disulfide dimer of PKGIα in perfused mouse hearts (0 or 5 mm Hg EDP), homogenised with 100 mM maleimide, SDS-PAGE without reducing agent and immunoblot
[2] = molecular target: PKGIα M438G (analogue-sensitive mutant), disulfide dimer (human); experiment: cross-linking; intermolecular Cys42 disulfide of purified recombinant PKGIα (lipoic acid or air oxidation) seen as dimer by SDS-PAGE
[3] = molecular target: Cardiac phospholamban (rat heart homogenate) (rat (endogenous in rat left ventricle)) (UniProt P61016)
Chain of Cardiac phospholamban (rat heart homogenate) (rat (endogenous in rat left ventricle)) (P61016 whole entry): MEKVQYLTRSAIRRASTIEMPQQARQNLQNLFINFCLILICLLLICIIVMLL

Chain of PKGIα (WT mouse heart) (P0C605 2-671): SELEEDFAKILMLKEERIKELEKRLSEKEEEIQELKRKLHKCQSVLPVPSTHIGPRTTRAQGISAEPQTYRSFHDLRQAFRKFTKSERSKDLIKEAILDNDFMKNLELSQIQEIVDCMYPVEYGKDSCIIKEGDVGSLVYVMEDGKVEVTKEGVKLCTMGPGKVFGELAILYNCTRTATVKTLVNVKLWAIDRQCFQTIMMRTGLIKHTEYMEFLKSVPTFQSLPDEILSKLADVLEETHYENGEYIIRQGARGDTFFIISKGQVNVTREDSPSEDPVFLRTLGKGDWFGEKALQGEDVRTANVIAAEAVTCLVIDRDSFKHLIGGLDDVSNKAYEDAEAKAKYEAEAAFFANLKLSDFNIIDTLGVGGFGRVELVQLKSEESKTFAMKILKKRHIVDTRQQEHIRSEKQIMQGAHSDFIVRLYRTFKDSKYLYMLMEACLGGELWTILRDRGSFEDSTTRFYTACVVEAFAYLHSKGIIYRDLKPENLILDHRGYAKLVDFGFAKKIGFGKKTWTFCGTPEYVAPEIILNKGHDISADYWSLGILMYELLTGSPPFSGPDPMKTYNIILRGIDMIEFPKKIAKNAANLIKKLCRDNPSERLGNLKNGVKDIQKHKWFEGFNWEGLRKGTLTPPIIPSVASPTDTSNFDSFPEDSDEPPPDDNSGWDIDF
Chain of N-terminally acetylated peptide of the N-terminal cytoplasmic domain of human phospholamban, PLN (amino acid 1-23) (P26678 1-23): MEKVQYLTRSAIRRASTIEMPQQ

fold change of Kd against WT PKGIα disulfide dimer (C42S PKGIα (human)): > 5 fold
Substance: N-terminally acetylated peptide of the N-terminal cytoplasmic domain of human phospholamban, PLN (amino acid 1-23) (from UniProt P26678 1-23)

stoichiometry N [1]: 2
Substance: PKGIα (WT mouse heart) (from UniProt P0C605 1-671) (enzyme)

stoichiometry N [2]: 2
log2 fold change in abundance of the PLN pSer16 phosphopeptide (thiophosphorylation in rat heart homogenate), disulfide-activated PKGIα M438G versus basal PKGIα C42S/M438G control (log2 fold change) [3]: 0.41
Substance: PKGIα M438G (analogue-sensitive mutant), disulfide dimer (enzyme)
